# Measurements taken from patent US6509447B1, “G protein chimeras and methods of screening compounds” (Glaxo Welcome Inc., priority 1997, dated 2003).
# Key:
# [1] = target: T1, purinergic nucleotide P2Y1 receptor (Homo sapiens, UniProt P47900); assay: CPRG assay, MMY11 cells expressing P2Y1 receptor plus Gα subunit; assay type: cell-based; parameters: key: weak activation insufficient to carry out curve-fitting was detected; NC: no coupling was detected
# T1 construct: expressed in transfected cells; host or cells: Saccharomyces cerevisiae strain MMY11, plasmid pDT-PGK-P2Y1
# T1 sequence (P47900 whole entry): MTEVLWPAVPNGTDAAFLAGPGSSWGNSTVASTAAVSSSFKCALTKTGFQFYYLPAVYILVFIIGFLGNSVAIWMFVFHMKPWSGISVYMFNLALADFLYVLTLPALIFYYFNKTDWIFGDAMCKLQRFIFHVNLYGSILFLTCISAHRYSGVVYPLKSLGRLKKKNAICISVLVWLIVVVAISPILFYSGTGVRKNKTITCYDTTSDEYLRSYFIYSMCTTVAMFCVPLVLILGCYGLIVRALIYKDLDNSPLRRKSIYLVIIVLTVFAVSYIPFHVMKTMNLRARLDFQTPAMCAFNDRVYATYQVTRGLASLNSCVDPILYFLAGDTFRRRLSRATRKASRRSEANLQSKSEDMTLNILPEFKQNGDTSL
# Protocol: (§1) Assay for combined FUS1-lacZ and FUS1-HIS3 Expression. In vivo assays of reporter gene induction (CPRG assays) were carried out by suspending cells to 0.02 OD600 in 200 μl SC-glucose (2%) lacking tryptophan, uracil and histidine. This medium was supplemented with agonists, and additionally 10 mM 3-aminotriazole and the β-galactosidase (lacZ) substrate chlorophenolred-β-D-galactopyranoside (CPRG; Boehringer) to a concentration of 0.1 mg/ml. To visualise the colour change reaction, the medium was buffered to pH 7 with 0.1 M sodium phosphate. The assay was conducted in a 96-well microtitre plate format. Plates were incubated for 24 hours without agitation, and absorbance at 570 nm was determined using a Victor microtitre plate reader (Wallac). EC50 values (+/−standard error) were estimated by curve-fitting, using the Robosage software package.
# (§2) MMY11 was used in an experiment in which cells were transformed with pairs of plasmids as before, one to express a Gα subunit and the other a receptor expression construct. […] Where pheromone response pathway activation was detected, the agonist concentration required to yield a half-maximal response (EC50+/−standard error; all values in nM except where otherwise indicated) was determined by curve-fitting, and is shown in Table 4A. Where no coupling was detected, this is also indicated (NC).
# [2] = test system: purinergic nucleotide P2Y2 receptor; assay: CPRG assay, MMY11 cells expressing P2Y2 receptor plus Gα subunit; assay type: cell-based, human; parameters: key: weak activation insufficient to carry out curve-fitting was detected; NC: no coupling was detected
# purinergic nucleotide P2Y2 receptor, sequence (P41231 1-347 limits assumed): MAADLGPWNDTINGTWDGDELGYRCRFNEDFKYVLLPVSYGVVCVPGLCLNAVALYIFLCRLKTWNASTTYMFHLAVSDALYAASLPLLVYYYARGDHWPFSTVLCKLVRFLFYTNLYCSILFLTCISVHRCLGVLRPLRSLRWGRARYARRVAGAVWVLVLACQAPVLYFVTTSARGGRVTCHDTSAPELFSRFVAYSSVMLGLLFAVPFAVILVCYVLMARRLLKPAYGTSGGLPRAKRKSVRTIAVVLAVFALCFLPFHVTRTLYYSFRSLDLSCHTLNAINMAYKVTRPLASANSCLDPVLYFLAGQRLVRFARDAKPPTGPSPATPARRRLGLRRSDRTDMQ
# Protocol: as §1, §2
# [3] = test system: pheromone response pathway; assay: Chemiluminescent β-galactosidase assay of FUS1-LacZ in MMY9 cells; assay type: cell-based, Saccharomyces cerevisiae; conditions: GPA1 promoter, mean ±SD, n≧5
# Protocol: Assays for FUS1-IacZ Expression. β-galactosidase activities in cell extracts were measured with two assays. In the first assay (ONPG assay), cell extracts were incubated with the substrate ONPG as described by (37). Units were defined as (A420×1000)/(OD600x×t×v) (25). In the chemiluminescent assay, cells were grown to late logarithmic phase and diluted to 0.02 OD600 in 100 μl SC-WH medium in the presence or absence of 1 μM α-factor in 96-well microtitre plates. After incubation (30° C.; 6 hours), 20 μl of cells were removed and mixed with 20 μl assay mix (125 mM sodium phosphate pH 7.6, 15 mM MgSO4, 200 μM Galacton-Star β-galactosidase substrate (Tropix), 10% (v/v) Sapphire II (Tropix), 1 U/μl oxalyticase (Enzogenetics)). After incubation (30° C.; 1 hr) chemiluminescence was determined in a Top-count scintillation counter (Packard).
# A Gpa1/Gαs chimera has been reported to couple the growth hormone releasing hormone receptor (12) when expressed from the strong constitutive promoter of the yeast phosphoglycerate kinase (PGK1) gene. We constructed Gpa1/Gαs and Gpa1/Gαq chimeras similar to those described above (FIG. 5b) and expressed them in MMY9 cells from the promoter of the GPA1 gene. We assayed FUS1-LacZ activity in these cells using a chemiluminescent assay, rather than the ONPG assay described above. […]
molecule,measurement,setting,value
"Gpa1p: endogenous yeast Gα subunit, product of the GPA1 gene (protein, UniProt P08539 2-472, looked up) Guanine nucleotide-binding …: GCTVSTQTIGDESDPFLQNKRANDVIEQSLQLEKQRDKNEIKLLLLGAGESGKSTVLKQLKLLHQGGFSHQERLQYAQVIWADAIQSMKILIIQARKLGIQLDCDDPINNKDLFACKRILLKAKALDYINASVAGGSDFLNDYVLKYSERYETRRRVQSTGRAKAAFDEDGNISNVKSDTDRDAETVTQNEDADRNNSSRINLQDICKDLNQEGDDQMFVRKTSREIQGQNRRNLIHEDIAKAIKQLWNNDKGIKQCFARSNEFQLEGSAAYYFDNIEKFASPNYVCTDEDILKGRIKTTGITETEFNIGSSKFKVLDAGGQRSERKKWIHCFEGITAVLFVLAMSEYDQMLFEDERVNRMHESIMLFDTLLNSKWFKDTPFILFLNKIDLFEEKVKSMPIRKYFPDYQGRVGDAEAGLKYFEKIFLSLNKTNKPIYVKRTCATDTQTMKFVLSAVTDLIIQQNLKKIGII",coupling class where no EC50 could be fitted,[1],NC
same,coupling class where no EC50 could be fitted,[2],weak
same,"FUS1-LacZ Activity, 1 μM α-factor",[3],27.2 ± 1.7 light units (×10^6 cps)
same,"FUS1-LacZ Activity, No α-factor",[3],0.73 ± 0.25 light units (×10^6 cps)
